Experimental findings from patent US20030207263, “Method of screening therapeutic agents” (published 2003) are described below.

In one data set the target is GST-Smad2 full length (UniProt Q15796 Q15796:1-467). Briefly: EMSA. To be noted: tags: GST, E. coli; label: 33P.
For the next data set, the target named is Smad2 (Homo sapiens, UniProt Q15796 Q15796:1-467). Briefly: EMSA. To be noted: label: 33P.
A further data set deals with GST-Smad1 full length (UniProt Q15797 Q15797:1-465). Kind of data set: EMSA. To be noted: tags: GST, E. coli; label: 33P. On the technique in general: Mobility shift assays separate free from complexed probe on a gel.
For another data set, the target named is Smad3 (Homo sapiens, UniProt P84022 P84022:1-425). Kind of data set: EMSA; not fused to GST. To be noted: label: 33P.
Another data set deals with GST-Smad4 full length (UniProt Q13485 Q13485:1-552). Kind of data set: EMSA; direct and specific. Particulars: tags: GST, E. coli; label: 33P.
GST-Smad4 full length, sequence (Q13485 whole entry, one chain of several): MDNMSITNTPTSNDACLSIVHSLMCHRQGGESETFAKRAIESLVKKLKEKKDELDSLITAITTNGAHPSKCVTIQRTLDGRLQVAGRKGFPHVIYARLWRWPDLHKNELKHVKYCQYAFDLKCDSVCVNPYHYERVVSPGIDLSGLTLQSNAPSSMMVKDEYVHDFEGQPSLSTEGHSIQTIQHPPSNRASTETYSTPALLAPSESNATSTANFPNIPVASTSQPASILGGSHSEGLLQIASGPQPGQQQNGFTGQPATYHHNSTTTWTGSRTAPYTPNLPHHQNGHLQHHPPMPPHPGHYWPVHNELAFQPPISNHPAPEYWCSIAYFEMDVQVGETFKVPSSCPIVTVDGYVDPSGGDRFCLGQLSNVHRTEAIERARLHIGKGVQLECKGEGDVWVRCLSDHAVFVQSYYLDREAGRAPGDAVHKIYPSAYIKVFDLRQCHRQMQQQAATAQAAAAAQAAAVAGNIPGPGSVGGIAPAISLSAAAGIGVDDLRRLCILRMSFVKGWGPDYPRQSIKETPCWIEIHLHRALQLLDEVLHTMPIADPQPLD

GST-Smad1 full length, sequence (Q15797 whole entry, the tested form may be a part, one chain of several): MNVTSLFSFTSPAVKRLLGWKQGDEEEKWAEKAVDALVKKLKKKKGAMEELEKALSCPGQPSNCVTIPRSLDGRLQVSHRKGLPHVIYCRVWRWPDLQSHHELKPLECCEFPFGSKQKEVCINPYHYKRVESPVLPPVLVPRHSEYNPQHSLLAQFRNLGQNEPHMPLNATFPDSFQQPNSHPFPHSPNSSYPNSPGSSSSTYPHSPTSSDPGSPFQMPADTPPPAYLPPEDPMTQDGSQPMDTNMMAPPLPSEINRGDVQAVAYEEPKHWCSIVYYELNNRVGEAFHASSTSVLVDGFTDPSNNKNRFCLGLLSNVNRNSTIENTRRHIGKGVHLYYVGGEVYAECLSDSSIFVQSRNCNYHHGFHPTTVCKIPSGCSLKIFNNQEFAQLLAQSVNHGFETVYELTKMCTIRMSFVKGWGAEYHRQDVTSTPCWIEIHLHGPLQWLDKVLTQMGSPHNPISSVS
Smad2, sequence (Q15796 whole entry, one chain of several): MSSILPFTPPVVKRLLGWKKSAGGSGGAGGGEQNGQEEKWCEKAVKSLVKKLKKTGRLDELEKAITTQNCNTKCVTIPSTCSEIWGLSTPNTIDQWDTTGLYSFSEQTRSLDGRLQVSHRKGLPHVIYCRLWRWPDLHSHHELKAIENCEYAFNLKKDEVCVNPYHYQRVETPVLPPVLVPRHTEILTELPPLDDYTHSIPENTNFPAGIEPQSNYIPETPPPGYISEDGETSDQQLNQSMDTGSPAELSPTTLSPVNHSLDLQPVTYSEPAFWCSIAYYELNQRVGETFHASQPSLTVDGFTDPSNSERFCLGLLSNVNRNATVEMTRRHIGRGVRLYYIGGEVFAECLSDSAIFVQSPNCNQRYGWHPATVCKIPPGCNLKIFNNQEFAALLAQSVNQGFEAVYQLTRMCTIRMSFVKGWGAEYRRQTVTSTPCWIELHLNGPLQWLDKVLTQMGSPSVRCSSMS
GST-Smad2 full length, sequence (Q15796 whole entry, one chain of several): as above
Smad3, sequence (P84022 whole entry, the tested form may be a part, one chain of several): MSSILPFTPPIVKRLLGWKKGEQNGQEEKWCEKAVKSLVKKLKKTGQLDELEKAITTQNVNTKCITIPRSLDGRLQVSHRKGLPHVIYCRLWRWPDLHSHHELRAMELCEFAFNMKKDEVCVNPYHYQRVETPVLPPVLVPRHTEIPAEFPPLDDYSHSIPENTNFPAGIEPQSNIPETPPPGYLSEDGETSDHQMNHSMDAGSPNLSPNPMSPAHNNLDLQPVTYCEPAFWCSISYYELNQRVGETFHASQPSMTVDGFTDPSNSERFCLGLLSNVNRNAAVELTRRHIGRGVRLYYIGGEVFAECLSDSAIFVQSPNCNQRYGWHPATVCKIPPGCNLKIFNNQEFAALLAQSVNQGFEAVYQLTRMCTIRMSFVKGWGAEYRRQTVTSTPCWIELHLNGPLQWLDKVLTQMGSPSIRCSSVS

B1: CAGA probe (dsDNA)
DNA 1: TCGAGAGCCAGACAAGGAGCCAGACAAGGAGCCAGACAC
DNA 2: GTGTCTGGCTCCTTGTCTGGCTCCTTGTCTGGCTCTCGA
For the molecule B1, the binding result in the data set with GST-Smad2 full length was “no binding”; in the data set with Smad2 it was “no binding”; with GST-Smad1 full length it was “no binding”; with Smad3, “binds”; in the data set with GST-Smad4 full length, “binds”.
